Laboratory results taken from patent US7989192B2, “Modified beta-lactamase and method for its preparation” (IPSAT Therapies Oy, priority 2006, dated 2011).

Columns and labels:
Test in all cases: purified protein, by the assay type
Type in all cases: biochemical, Bacillus cereus
Details in all cases: other: 10 mM phosphate buffer, pH 7.0, 30° C, Hanes plot, mean of three independent measurements
[1] = system: CO/N=C(\C(=O)N[C@@H]1C(=O)N2C(C(=O)O)=C(COC(C)=O)CS[C@H]12)c1csc(N)n1
Procedure: (§1) The enzyme kinetic parameters kcat and Km were determined from initial rates by Hanes plot. The reactions were performed in 10 mM phosphate buffer, pH 7.0 at 30° C. The reaction cuvette (one mL) contained about 5 pmol of enzyme in all reactions except 1.7 pmol of enzyme in the meropenem assay. The hydrolysis of various beta-lactam substrates was spectrophometrically recorded at a wavelength specific for each substrate.
(§2) Values for different kinetic parameters (kcat, Km and kcat/Km) that represent mean values obtained from three independent measurements are reported in Table 6.

[2] = system: CCN1CCN(C(=O)N[C@@H](C(=O)N[C@@H]2C(=O)N3[C@@H]2SC(C)(C)[C@@H]3C(=O)O)c2ccccc2)C(=O)C1=O
Procedure: as §1, §2

[3] = system: CC1(C)S[C@@H]2[C@H](NC(=O)[C@H](N)c3ccc(O)cc3)C(=O)N2[C@H]1C(=O)O
Procedure: as §1, §2

[4] = system: C[C@@H](O)[C@H]1C(=O)N2C(C(=O)O)=C(S[C@@H]3CN[C@H](C(=O)N(C)C)C3)[C@H](C)[C@H]12
Procedure: as §1, §2

[5] = system: CO/N=C(\C(=O)N[C@@H]1C(=O)N2C(C(=O)O)=C(COC(N)=O)CS[C@H]12)c1ccco1
Procedure: as §1, §2

[6] = system: CO/N=C(\C(=O)N[C@@H]1C(=O)N2C(C(=O)O)=C(CSc3nc(=O)c(=O)[nH]n3C)CS[C@H]12)c1csc(N)n1
Procedure: as §1, §2

[7] = system: CC1(C)S[C@@H]2[C@H](NC(=O)[C@H](N)c3ccccc3)C(=O)N2[C@H]1C(=O)O
Procedure: as §1, §2

Substance: P2A metallo-beta-lactamase (Bacillus cereus)
- Km [1]: 66 µM
- Km [2]: 372 µM
- Km [3]: 716 µM
- Km [4]: 410 µM
- Km [5]: 27 µM
- Km [6]: 68 µM
- Km [7]: 942 µM
